{"source": "the RNAGym collection of RNA variant scans (doi:10.1093/molbev/msab373)", "parents": {"B1": {"name": "Azoarcus group I ribozyme (parent)", "chain": "GUGCCUUGCGCCGGGAAACCACGCAAGGGAUGGUGUCAAAUUCGGCGAAACCUAAGCGCCCGCCCGGGCGUAUGGCAACGCCGAGCCAAGCUUCGGCGCCUGCGCCGAUGAAGGUGUAGAGACUAGACGGCACCCACCUAAGGCAAACGCUAUGGUGAAGGCAUAGUCCAGGGAGUGGCGAAAGUCACACAAACCGG"}}, "data": [{"variants_of": "B1", "assay": "reverse-splicing fitness (ratio to wild type); higher = more active; in vitro selection; Mg2+ level not given", "how_it_was_run": "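An in vitro group I ribozyme library with randomized positions was T7-transcribed and gel-purified. In triplicate, 10 pmol RNA in EPPS pH 7.5 was reacted with 50 pmoles of a 30-nt RNA substrate for 1 h at 37 °C across several added MgCl2 levels (1–48 mM), then stopped with EDTA. Products were reverse transcribed from a substrate-complementary primer, PCR-amplified and sequenced (HiSeq 4000). Fitness is a variant's read proportion after selection over that before, normalised to wild type.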", "values": [{"variant": "C82A A111U A120U A145U C150G C169U", "reverse-splicing fitness": 0.00332}, {"variant": "C82A A111U A120U A145U C150G C169U U176A", "reverse-splicing fitness": 0.00308}, {"variant": "C82A A111U A120U A145U C150G C169U U176C", "reverse-splicing fitness": 0.00313}, {"variant": "C82A A111U A120U A145U C150G C169U U176G", "reverse-splicing fitness": 0.0027}, {"variant": "C82A A111U A120U A145U C150G U176A", "reverse-splicing fitness": 0.00344}, {"variant": "C82A A111U A120U A145U C150G U176C", "reverse-splicing fitness": 0.00545}, {"variant": "C82A A111U A120U A145U C150G U176G", "reverse-splicing fitness": 0.00272}, {"variant": "C82A A111U A120U A145U C150U", "reverse-splicing fitness": 0.0173}, {"variant": "C82A A111U A120U A145U C150U C169A", "reverse-splicing fitness": 0.00293}, {"variant": "C82A A111U A120U A145U C150U C169A U176A", "reverse-splicing fitness": 0.00366}, {"variant": "C82A A111U A120U A145U C150U C169A U176C", "reverse-splicing fitness": 0.00305}, {"variant": "C82A A111U A120U A145U C150U C169A U176G", "reverse-splicing fitness": 0.00243}, {"variant": "C82A A111U A120U A145U C150U C169G", "reverse-splicing fitness": 0.00407}, {"variant": "C82A A111U A120U A145U C150U C169G U176A", "reverse-splicing fitness": 0.00409}, {"variant": "C82A A111U A120U A145U C150U C169G U176C", "reverse-splicing fitness": 0.00351}, {"variant": "C82A A111U A120U A145U C150U C169G U176G", "reverse-splicing fitness": 0.00224}, {"variant": "C82A A111U A120U A145U C150U C169U", "reverse-splicing fitness": 0.00362}, {"variant": "C82A A111U A120U A145U C150U C169U U176A", "reverse-splicing fitness": 0.00333}, {"variant": "C82A A111U A120U A145U C150U C169U U176C", "reverse-splicing fitness": 0.00339}, {"variant": "C82A A111U A120U A145U C150U C169U U176G", "reverse-splicing fitness": 0.00299}, {"variant": "C82A A111U A120U A145U C150U U176A", "reverse-splicing fitness": 0.00828}, {"variant": "C82A A111U A120U A145U C150U U176C", "reverse-splicing fitness": 0.00878}, {"variant": "C82A A111U A120U A145U C150U U176G", "reverse-splicing fitness": 0.00385}, {"variant": "C82A A111U A120U A145U C169A", "reverse-splicing fitness": 0.00249}, {"variant": "C82A A111U A120U A145U C169A U176A", "reverse-splicing fitness": 0.00283}, {"variant": "C82A A111U A120U A145U C169A U176C", "reverse-splicing fitness": 0.00197}, {"variant": "C82A A111U A120U A145U C169A U176G", "reverse-splicing fitness": 0.00222}, {"variant": "C82A A111U A120U A145U C169G", "reverse-splicing fitness": 0.00304}, {"variant": "C82A A111U A120U A145U C169G U176A", "reverse-splicing fitness": 0.00291}, {"variant": "C82A A111U A120U A145U C169G U176C", "reverse-splicing fitness": 0.00323}, {"variant": "C82A A111U A120U A145U C169G U176G", "reverse-splicing fitness": 0.00199}, {"variant": "C82A A111U A120U A145U C169U", "reverse-splicing fitness": 0.0039}, {"variant": "C82A A111U A120U A145U C169U U176A", "reverse-splicing fitness": 0.00289}, {"variant": "C82A A111U A120U A145U C169U U176C", "reverse-splicing fitness": 0.00325}, {"variant": "C82A A111U A120U A145U C169U U176G", "reverse-splicing fitness": 0.00208}, {"variant": "C82A A111U A120U A145U U176A", "reverse-splicing fitness": 0.0073}, {"variant": "C82A A111U A120U A145U U176C", "reverse-splicing fitness": 0.0117}, {"variant": "C82A A111U A120U A145U U176G", "reverse-splicing fitness": 0.00335}, {"variant": "C82A A111U A120U C150A", "reverse-splicing fitness": 0.00876}, {"variant": "C82A A111U A120U C150A C169A", "reverse-splicing fitness": 0.00615}, {"variant": "C82A A111U A120U C150A C169A U176A", "reverse-splicing fitness": 0.00679}, {"variant": "C82A A111U A120U C150A C169A U176C", "reverse-splicing fitness": 0.00509}, {"variant": "C82A A111U A120U C150A C169A U176G", "reverse-splicing fitness": 0.00306}, {"variant": "C82A A111U A120U C150A C169G", "reverse-splicing fitness": 0.00511}, {"variant": "C82A A111U A120U C150A C169G U176A", "reverse-splicing fitness": 0.00956}, {"variant": "C82A A111U A120U C150A C169G U176C", "reverse-splicing fitness": 0.00511}, {"variant": "C82A A111U A120U C150A C169G U176G", "reverse-splicing fitness": 0.00222}, {"variant": "C82A A111U A120U C150A C169U", "reverse-splicing fitness": 0.00495}, {"variant": "C82A A111U A120U C150A C169U U176A", "reverse-splicing fitness": 0.00587}, {"variant": "C82A A111U A120U C150A C169U U176C", "reverse-splicing fitness": 0.00489}, {"variant": "C82A A111U A120U C150A C169U U176G", "reverse-splicing fitness": 0.00224}, {"variant": "C82A A111U A120U C150A U176A", "reverse-splicing fitness": 0.00697}, {"variant": "C82A A111U A120U C150A U176C", "reverse-splicing fitness": 0.00653}, {"variant": "C82A A111U A120U C150A U176G", "reverse-splicing fitness": 0.0037}, {"variant": "C82A A111U A120U C150G", "reverse-splicing fitness": 0.00757}, {"variant": "C82A A111U A120U C150G C169A", "reverse-splicing fitness": 0.00872}, {"variant": "C82A A111U A120U C150G C169A U176A", "reverse-splicing fitness": 0.00623}, {"variant": "C82A A111U A120U C150G C169A U176C", "reverse-splicing fitness": 0.00557}, {"variant": "C82A A111U A120U C150G C169A U176G", "reverse-splicing fitness": 0.00311}, {"variant": "C82A A111U A120U C150G C169G", "reverse-splicing fitness": 0.00683}, {"variant": "C82A A111U A120U C150G C169G U176A", "reverse-splicing fitness": 0.00475}, {"variant": "C82A A111U A120U C150G C169G U176C", "reverse-splicing fitness": 0.00289}, {"variant": "C82A A111U A120U C150G C169G U176G", "reverse-splicing fitness": 0.00289}, {"variant": "C82A A111U A120U C150G C169U", "reverse-splicing fitness": 0.00659}, {"variant": "C82A A111U A120U C150G C169U U176A", "reverse-splicing fitness": 0.00341}, {"variant": "C82A A111U A120U C150G C169U U176C", "reverse-splicing fitness": 0.00451}, {"variant": "C82A A111U A120U C150G C169U U176G", "reverse-splicing fitness": 0.00327}, {"variant": "C82A A111U A120U C150G U176A", "reverse-splicing fitness": 0.00499}, {"variant": "C82A A111U A120U C150G U176C", "reverse-splicing fitness": 0.00606}, {"variant": "C82A A111U A120U C150G U176G", "reverse-splicing fitness": 0.00265}, {"variant": "C82A A111U A120U C150U", "reverse-splicing fitness": 0.016}, {"variant": "C82A A111U A120U C150U C169A", "reverse-splicing fitness": 0.00594}, {"variant": "C82A A111U A120U C150U C169A U176A", "reverse-splicing fitness": 0.00575}, {"variant": "C82A A111U A120U C150U C169A U176C", "reverse-splicing fitness": 0.00344}, {"variant": "C82A A111U A120U C150U C169A U176G", "reverse-splicing fitness": 0.00226}, {"variant": "C82A A111U A120U C150U C169G", "reverse-splicing fitness": 0.00623}, {"variant": "C82A A111U A120U C150U C169G U176A", "reverse-splicing fitness": 0.00965}, {"variant": "C82A A111U A120U C150U C169G U176C", "reverse-splicing fitness": 0.00496}, {"variant": "C82A A111U A120U C150U C169G U176G", "reverse-splicing fitness": 0.00271}, {"variant": "C82A A111U A120U C150U C169U", "reverse-splicing fitness": 0.00507}, {"variant": "C82A A111U A120U C150U C169U U176A", "reverse-splicing fitness": 0.00662}, {"variant": "C82A A111U A120U C150U C169U U176C", "reverse-splicing fitness": 0.00448}, {"variant": "C82A A111U A120U C150U C169U U176G", "reverse-splicing fitness": 0.00262}]}]}
